Earlier results on 1 substance are cited in PMC5904255.

The data set has as its target C1q (Homo sapiens) (UniProt P02745).

C1q (Homo sapiens), sequence (P02745 23-245, chain 1 of 3): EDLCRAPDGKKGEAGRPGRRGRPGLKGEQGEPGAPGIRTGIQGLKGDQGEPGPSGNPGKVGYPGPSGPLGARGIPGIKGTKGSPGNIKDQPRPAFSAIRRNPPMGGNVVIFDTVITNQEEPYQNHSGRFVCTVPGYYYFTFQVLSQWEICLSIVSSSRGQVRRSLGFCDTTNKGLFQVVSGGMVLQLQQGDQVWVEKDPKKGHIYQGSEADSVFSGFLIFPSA
C1q (Homo sapiens), sequence (P02746 28-253, chain 2 of 3, further chain): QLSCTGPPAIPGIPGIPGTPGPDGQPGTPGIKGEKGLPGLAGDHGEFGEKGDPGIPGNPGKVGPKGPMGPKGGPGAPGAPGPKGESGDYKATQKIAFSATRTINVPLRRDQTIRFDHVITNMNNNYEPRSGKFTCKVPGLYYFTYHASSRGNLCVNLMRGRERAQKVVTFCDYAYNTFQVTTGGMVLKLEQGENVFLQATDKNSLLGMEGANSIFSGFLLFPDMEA
C1q (Homo sapiens), sequence (P02747 29-245, chain 3 of 3, further chain): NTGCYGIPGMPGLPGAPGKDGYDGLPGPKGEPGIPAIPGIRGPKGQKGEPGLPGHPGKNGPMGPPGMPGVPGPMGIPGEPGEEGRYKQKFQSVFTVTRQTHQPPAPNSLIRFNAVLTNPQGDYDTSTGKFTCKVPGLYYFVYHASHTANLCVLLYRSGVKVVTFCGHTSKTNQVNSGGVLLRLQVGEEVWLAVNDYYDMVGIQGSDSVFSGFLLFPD
HMGB1, sequence (P09429 whole entry): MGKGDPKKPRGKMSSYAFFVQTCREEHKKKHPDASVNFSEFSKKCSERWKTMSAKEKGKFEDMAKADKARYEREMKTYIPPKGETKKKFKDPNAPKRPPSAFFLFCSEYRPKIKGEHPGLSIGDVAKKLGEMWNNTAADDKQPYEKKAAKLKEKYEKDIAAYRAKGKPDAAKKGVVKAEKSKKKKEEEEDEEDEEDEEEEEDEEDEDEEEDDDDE

The term Kd denotes the concentration at which binding is half-saturated. As to HMGB1 (from UniProt P09429), the Kd was 200 nM.
